# Experimental data reported in patent US20110311508A1 (NORTHWESTERN UNIVERSITY, published 2011).
# B1: Myc-HSF1 K80Q (other)
# chain: MDLPVGPGAAGPSNVPAFLTKLWTLVSDPDTDALICWSPSGNSFHVFDQGQFAKEVLPKYFKHNNMASFVRQLNMYGFRQVVHIEQGGLVKPERDDTEFQHPCFLRGQEQLLENIKRKVTSVSTLKSEDIKIRQDSVTKLLTDVQLMKGKQECMDSKLLAMKHENEALWREVASLRQKHAQQQKVVNKLIQFLISLVQSNRILGVKRKIPLMLNDSGSAHSMPKYSRQFSLEHVHGSGPYSAPSPAYSSSSLYAPDAVASSGPIISDITELAPASPMASPGGSIDERPLSSSPLVRVKEEPPSPPQSPRVEEASPGRPSSVDTLLSPTALIDSILRESEPAPASVTALTDARGHTDTEGRPPSPPPTSTPEKCLSVACLDKNELSDHLDAMDSNLDNLQTMLSSHGFSVDTSALLDLFSPSVTVPDMSLPDLDSSLASIQELLSPQEPPRPPEAENSSPDSGKQLVHYTAQPLFLLDPGSVDTGSNDLPVLFELGEGSYFSEGDGFAEDPTISLLTGSEPPKAKDPTVS
# notes: also called K80Q mutant; K80Q HSF1; not shown: Myc tag
# Biological target: the molecule itself
# Experiment: self-association (trimerization); EGS crosslinking of K562 cell extracts, SDS-PAGE, western blot
# Source text: FIG. 9: The HSF1 K80Q mutant is not defective in trimerization ability. A prerequisite of stable HSF binding to DNA is the formation of trimeric HSF complexes. Therefore, it is conceivable that mutations of K80 disrupted proper HSF1 folding or the stress-induced formation of HSF trimers. To explore this possibility, e a cross-linking assay was used to determine the formation of higher-order complexes upon heat shock. K562 cells were transfected with WT Myc-HSF1, Myc-HSF1 K80Q or Myc-HSF1 M391K, L395P, a previously characterized HSF1 mutant that is constitutively trimeric (14). Cells were treated with or without heat shock (HS, 42° C., 20 minutes) followed by treatment with the EGS crosslinking agent. Protein extracts were separated by SDS-PAGE and western blot analysis was performed with the indicated antibodies. The arrow indicates monomeric HSF1 and the arrowhead marks trimeric HSF1.
protein,measurement,value
B1,binding result,binds
